Data published in US20210246218A1 (LYVGEN BIOPHARMA SUZHOU, published 2021).

Tests used:
[1] = biological target: T1, huCD137-C6His (human, UniProt Q07011 24-186); test: SPR (Biacore T200), huCD137-C6His immobilised, antibody as analyte, 1:1 model, 25 °C
T1 construct: Immobilised by amine coupling on the sensor chip; also called human CD137 protein (Biacore ligand); not shown: C-terminal 6xHis tag by the name C6His
Protocol: Flow cells of a CMS sensor chip (GE Healthcare Life Sciences) were activated with freshly mixed 50 mmol/L NHS and 200 mmol/L EDC for 420 seconds (10 μL/min). Then, huCD137-C6His in 10 mmol/L NaAC (pH 5.0) was injected onto the activated flow cell (10 μL/min) with HBS-EP (10 mM HEPES, 150 mM NaCl, 3 mM EDTA and 0.05% P20, pH 7.4) as the running buffer. The remaining active coupling sites were blocked with a 420 second injection of 1 mol/L ethanolamine The measurement was performed under 25° C., and HBS-EP was used as the running buffer. An injection of a tested analyte and surface regeneration of the CMS sensor chip were included in each running cycle. […] Buffer flow was maintained for approximately 180 seconds for dissociation. To remove the tested antibodies, an injection of 10 mM glycine-HCl for approximately 30 seconds was used for regeneration. The above procedures were repeated for each concentration of serially diluted tested antibody. The raw data of the surface plasmon resonance experiments were evaluated using Biacore T200 evaluation software 3.1 with a 1:1 binding model. Flow cell 1 was used as the reference flow cell.

[2] = biological target: T2, Ly051; test: ELISA, clone 3712-IgG1v coated, CD137 protein titrated (EC50 is a concentration of the CD137 protein); curve only begins to rise: about 0.42 at 100000 ng/mL, no plateau, fit marked ~
T2 chain: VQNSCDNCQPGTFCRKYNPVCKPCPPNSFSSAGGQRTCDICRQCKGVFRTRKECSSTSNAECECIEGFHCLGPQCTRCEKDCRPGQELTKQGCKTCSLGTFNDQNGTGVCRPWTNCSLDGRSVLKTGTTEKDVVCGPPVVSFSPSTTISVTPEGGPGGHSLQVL
Protocol: The plate was decanted and washed once; assay diluent was added 200 μL/well. After one-hour incubation at room temperature, the plate was washed with PBST one time. CD137 receptor human/mouse chimeras were diluted in assay diluent to 100 or 10 μg/mL, and then a 4-fold serial dilution in assay diluent for 11 points to final concentrations of 100000, 25000, 6250, 1562.5, 390.63, 97.66, 24.41, 6.10, 1.53, 0.38 and 0.095 ng/mL or 10000, 2500, 625, 156.25, 39.06, 9.77, 2.44, 0.61, 0.15, 0.038 and 0.0095 ng/mL. The diluted CD137 receptor was added to the assay plate, 50 μL/well, in duplicate. The plate was incubated one hour at room temperature and then washed three times with PBST. Goat anti-human IgG-H+L HRP conjugated at 1:100,000 20 dilution was added to the plate at 100 μL/well. The plate was then incubated one hour at room temperature followed by washing with PBST four times. The TMB substrate solution was added at 100 μL/well. The color was allowed to develop for 15 minutes, and was stopped with 100 μL/well 2N H2SO4. Absorbance at 450 nm and 620 nm was determined by a Tecan F200 Pro reader.

T1 sequence (Q07011 24-186): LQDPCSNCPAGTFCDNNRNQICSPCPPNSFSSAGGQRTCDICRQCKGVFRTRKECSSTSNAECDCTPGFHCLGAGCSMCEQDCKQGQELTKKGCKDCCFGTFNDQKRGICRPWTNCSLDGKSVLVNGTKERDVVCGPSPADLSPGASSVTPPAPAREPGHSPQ

Kd [1]: 18.9 nM | koff [1]: 0.0138 s⁻¹ | kon [1]: 730000 M⁻¹ s⁻¹ | EC50 [2]: ~466 µg/mL
B1: Clone 3712-IgG1v (IgG1v/kappa) (antibody)
heavy: QVQLVQSGAEVKKPGASVKVSCKASGYTFAGFEMHWVRQAPGQGLEWMGAIDPKTGGTDYNQKFKDRVTMTRDTSISTAYMELSRLRSDDTAVYYCARDLGYFDVWGQGTLVTVSSASTKGPSVFPLAPSSKSTSGGTAALGCLVKDYFPEPVTVSWNSGALTSGVHTFPAVLQSSGLYSLSSVVTVPSSSLGTQTYICNVNHKPSNTKVDKKVEPKSCDKTHTCPPCPAPELLGPSVFLFPPKPKDTLMISRTPEVTCVVVDVEHEDPEVKFNWYVDGVEVHNAKTKPREEQYNSTYRVVSVLTVLHQDWLNGKEYKCKVSNKALPAPIEKTISKAKGQPREPQVYTLPPSREEMTKNQVSLTCLVKGFYPSDIAVEWESNGQPENNYKTTPPVLDSDGSFFLYSKLTVDKSRWQQGNVFSCSVMHEALHNHYTQKSLSLSPGK
light: DIQMTQSPSSLSASVGDRVTITCRASQDIRSNLNWYQQKPGGAVKLLIYYTSRLHSGVPSRFSGSGSGTDYTLTISSLQPEDFATYFCQQSEKLPRTFGGGTKVEIRRTVAAPSVFIFPPSDEQLKSGTASVVCLLNNFYPREAKVQWKVDNALQSGNSQESVTEQDSKDSTYSLSSTLTLSKADYEKHKVYACEVTHQGLSSPVTKSFNRGEC
notes: copies: 2 + 2
